Molecular target: HH-120 (IgM-like hACE2-Fc fusion protein) (UniProt Q9BYF1)
Assay: SPR

Substance | Kd [nM]
S trimer protein of the SARS-CoV-2 Beta variant (from UniProt P0DTC2) (natural protein) | 1
S trimer protein of the SARS-CoV-2 Delta variant (from UniProt P0DTC2) (natural protein) | 1
S trimer protein of the SARS-CoV-2 Omicron variant (from UniProt P0DTC2) (natural protein) | 1
S trimer protein of the SARS-CoV-2 Alpha variant (from UniProt P0DTC2) (natural protein) | 1

Reference: publication PMC10457309
